# System: Escherichia coli TOP10
# Assay: shrunken log2 fold change of peptide-encoding DNA abundance (4.5 h post-induction vs induction); higher = less antimicrobial activity (less host growth inhibition)
# Settings: time post-induction: 4.5 h; library: site-saturation at positions 5, 18, 19, 20
# 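Also: peptides expressed intracellularly from a pBAD plasmid library in pooled LB shake-flask culture, induced with 0.3% L-arabinose, DNA abundance read by NGS, three biological replicates, DESeq2 with apeglm shrinkage.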
row,Sequence,shrunken log2 fold change
1,RRIRWRPPRLPRPRPRPSWGPRP,0.121
2,RRIRRRPPRLPRPRPRPNNAPRP,-0.18
3,RRIRARPPRLPRPRPRPHNPPRP,0.0946
4,RRIRIRPPRLPRPRPRPGMGPRP,0.132
5,RRIRWRPPRLPRPRPRPYNYPRP,-0.331
6,RRIRNRPPRLPRPRPRPTPPPRP,0.49
7,RRIRQRPPRLPRPRPRPNCPPRP,0.0556
8,RRIRCRPPRLPRPRPRPSICPRP,-0.194
9,RRIRNRPPRLPRPRPRPVYSPRP,-0.252
10,RRIRERPPRLPRPRPRPHNVPRP,-0.42
11,RRIRVRPPRLPRPRPRPMFNPRP,-0.4
12,RRIRDRPPRLPRPRPRPDVGPRP,0.232
13,RRIRIRPPRLPRPRPRPDVWPRP,-0.109
14,RRIRERPPRLPRPRPRPADWPRP,0.349
15,RRIRHRPPRLPRPRPRPLQCPRP,-0.0439
16,RRIRRRPPRLPRPRPRPGLRPRP,0.338
17,RRIRFRPPRLPRPRPRPVESPRP,-0.0712
18,RRIRSRPPRLPRPRPRPHNQPRP,-0.271
19,RRIRMRPPRLPRPRPRPALLPRP,0.727
20,RRIRLRPPRLPRPRPRPNAKPRP,-0.0021
21,RRIRTRPPRLPRPRPRPASHPRP,-0.42
22,RRIRGRPPRLPRPRPRPYAWPRP,0.0018
23,RRIRYRPPRLPRPRPRPDAKPRP,-0.118
24,RRIRRRPPRLPRPRPRPRFYPRP,-0.237
25,RRIRPRPPRLPRPRPRPEKAPRP,0.385

row,Sequence,shrunken log2 fold change
1,RRIRARPPRLPRPRPRPGSLPRP,0.056
2,RRIRGRPPRLPRPRPRPQDHPRP,0.254
3,RRIRPRPPRLPRPRPRPQAQPRP,0.143
4,RRIRSRPPRLPRPRPRPDSNPRP,-0.529
5,RRIRARPPRLPRPRPRPPCEPRP,0.716
6,RRIRFRPPRLPRPRPRPEAIPRP,0.104
7,RRIRERPPRLPRPRPRPWFPPRP,-0.206
8,RRIRYRPPRLPRPRPRPQRMPRP,-0.74
9,RRIRPRPPRLPRPRPRPWSWPRP,0.217
10,RRIRQRPPRLPRPRPRPHRKPRP,-0.227
11,RRIRWRPPRLPRPRPRPTMEPRP,0.00667
12,RRIRYRPPRLPRPRPRPTTAPRP,-0.415
13,RRIRMRPPRLPRPRPRPYMIPRP,-0.00479
14,RRIRARPPRLPRPRPRPHIAPRP,-0.111
15,RRIRKRPPRLPRPRPRPGNWPRP,0.701
16,RRIRERPPRLPRPRPRPLCDPRP,1.81
17,RRIRYRPPRLPRPRPRPMVYPRP,-0.00783
18,RRIRIRPPRLPRPRPRPYLQPRP,-0.00195
19,RRIRTRPPRLPRPRPRPYTMPRP,-0.232
20,RRIRARPPRLPRPRPRPLCWPRP,0.43
21,RRIRERPPRLPRPRPRPDEIPRP,-0.111
22,RRIRMRPPRLPRPRPRPMMMPRP,-0.0717
23,RRIRQRPPRLPRPRPRPACMPRP,-0.294
24,RRIRKRPPRLPRPRPRPQFRPRP,0.0319
25,RRIRKRPPRLPRPRPRPGYWPRP,-0.00764

row,Sequence,shrunken log2 fold change
1,RRIRRRPPRLPRPRPRPITVPRP,-0.179
2,RRIRWRPPRLPRPRPRPRARPRP,0.773
3,RRIRRRPPRLPRPRPRPHKGPRP,0.221
4,RRIRLRPPRLPRPRPRPTTRPRP,0.34
5,RRIRCRPPRLPRPRPRPVTCPRP,-0.121
6,RRIRRRPPRLPRPRPRPECWPRP,0.958
7,RRIRYRPPRLPRPRPRPMVMPRP,-0.0337
8,RRIRGRPPRLPRPRPRPAFFPRP,0.787
9,RRIRSRPPRLPRPRPRPYSFPRP,-0.795
10,RRIRNRPPRLPRPRPRPYCHPRP,-0.72
11,RRIRHRPPRLPRPRPRPFGGPRP,-0.0398
12,RRIRLRPPRLPRPRPRPMRTPRP,0.3
13,RRIRDRPPRLPRPRPRPKHHPRP,-0.272
14,RRIRVRPPRLPRPRPRPQKWPRP,0.202
15,RRIRVRPPRLPRPRPRPMQDPRP,0.0217
16,RRIRLRPPRLPRPRPRPRAFPRP,0.25
17,RRIRTRPPRLPRPRPRPEWDPRP,0.064
18,RRIRHRPPRLPRPRPRPGGRPRP,0.0167
19,RRIRSRPPRLPRPRPRPAVMPRP,0.139
20,RRIRRRPPRLPRPRPRPCDSPRP,-0.396
21,RRIRNRPPRLPRPRPRPSIFPRP,-0.662
22,RRIRPRPPRLPRPRPRPSVFPRP,-0.0552
23,RRIRSRPPRLPRPRPRPMNEPRP,-0.457
24,RRIRDRPPRLPRPRPRPPKNPRP,0.344
25,RRIRYRPPRLPRPRPRPFFEPRP,-0.482

# Reference: the supplement of paper PMC9112550, “Optimization of the antimicrobial peptide Bac7 by deep mutational scanning” (BMC Biology, 2022)
